T1: mouse Cdt1^172-368 (mouse, UniProt Q8R4E9 172-368)
T1 chain: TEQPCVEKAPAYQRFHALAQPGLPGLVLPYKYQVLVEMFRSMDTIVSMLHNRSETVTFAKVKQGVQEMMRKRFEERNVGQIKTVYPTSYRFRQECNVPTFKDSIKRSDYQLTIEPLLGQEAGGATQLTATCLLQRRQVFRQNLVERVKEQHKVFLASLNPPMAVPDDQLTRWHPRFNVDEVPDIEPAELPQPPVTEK

T2: mouse Cdt1^172-368 (mouse, UniProt Q8R4E9 172-368)
T2 construct: Cdt1, mouse, residues 172-368; Inserted between the NdeI and KpnI sites of pET Duet 1; source: E. coli BL21, purified, dialyzed
T2 sequence (looked up): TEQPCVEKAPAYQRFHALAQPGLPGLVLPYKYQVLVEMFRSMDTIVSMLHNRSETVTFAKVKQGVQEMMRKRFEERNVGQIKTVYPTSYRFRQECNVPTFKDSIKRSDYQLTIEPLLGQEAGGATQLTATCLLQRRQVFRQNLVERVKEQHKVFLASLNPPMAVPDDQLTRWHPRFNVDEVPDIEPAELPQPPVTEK


What was measured:
[1] = target: mouse Cdt1^172-368 (mouse) (UniProt Q8R4E9); assay: ITC; MicroCal ITC200, 18 °C; 20 mM Na-HEPES pH 7.5, 300 mM NaCl, 7 mM β-mercaptoethanol; 17 injections of Geminin (WT 0.432 mM, AWA 0.297 mM) into 200 µL Cdt1 (0.044 mM)
mouse Cdt1^172-368 [2] = target: T1, mouse Cdt1^172-368; assay: ITC
mouse Cdt1^172-368 [3] = target: T2, mouse Cdt1^172-368; assay: ITC; MicroCal ITC200, 18 °C; 20 mM Na-HEPES pH 7.5, 300 mM NaCl, 7 mM β-mercaptoethanol; 17 injections of Geminin (WT 0.432 mM, AWA 0.297 mM) into 200 µL Cdt1 (0.044 mM); details: both partners purified

| Kd [1] [nM] | Ka (mouse Cdt1^172-368 [2]) [M⁻¹] | Kd (mouse Cdt1^172-368 [3]) [nM] | Binder |
| --- | --- | --- | --- |
| 250 | 4e+06 |  | mouse Geminin^79-157 AWA (domain or fragment) TQEAFDLISKENPSSQAWAEVAEQRRKALYEALKENEKLHKEIEQKDSEIARLRKENKDLAEVAEHVQYMAEVIERLSN |
|  | 3.5e+06 | 290 | mouse Geminin^79-157 wild type (domain or fragment, UniProt O88513 79-157, looked up, Geminin, mouse, residues 79-157 (methods); Limits differ between methods (79-157) and legend (72-157); also called Geminin^WT; source: E. coli BL21, purified over nickel-NTA agarose, dialyzed) TQEAFDLISKENPSSQYWKEVAEQRRKALYEALKENEKLHKEIEQKDSEIARLRKENKDLAEVAEHVQYMAEVIERLSN |

Source: paper PMC4488664, “An Inactive Geminin Mutant That Binds Cdt1” (Genes, 2015)
